Measurements from publication PMC6039025.

Assays:
Test in all cases: fluorescence anisotropy
Settings in all cases: Hill slope fit; 10 nM 6-FAM ssDNA, 0.001-6 uM protein, 20 min at 30 C, read at room temperature; binding buffer not stated (protein storage FP buffer: 200 mM NaCl, 50 mM …)
[1] = tested on: condensin holocomplex, Smc4-A1376S-Q1377A (Saccharomyces cerevisiae (overexpressed in strain D1074))
[2] = tested on: condensin holocomplex, Smc4-K191M (Saccharomyces cerevisiae (overexpressed in strain D1074))
[3] = tested on: condensin holocomplex, Smc4-L1333I-L1335A (Saccharomyces cerevisiae (overexpressed in strain D1074))
[4] = tested on: condensin holocomplex, Smc4-L1333V-L1335A (Saccharomyces cerevisiae (overexpressed in strain D1074))
[5] = tested on: condensin holocomplex, Smc4-L1335A (Saccharomyces cerevisiae (overexpressed in strain D1074))
[6] = tested on: condensin holocomplex, Smc4-Q1377A (Saccharomyces cerevisiae (overexpressed in strain D1074))
[7] = tested on: condensin holocomplex, wild-type Smc4 (Saccharomyces cerevisiae (overexpressed in strain D1074))

6-FAM 60-nt ssDNA gave a Kd [1] of 171 nM, a Kd [2] of 76.7 nM and a Kd [3] of 92.8 nM. For the same substance, the Kd [4] was 148 nM, the Kd [5] was 193 nM and the Kd [6] was 216 nM. It also gave a Kd [7] of 252 nM.
